Here are results for ten molecules from US20250230248A1 (TAVOTEK BIOTHERAPEUTICS HONG KONG, published 2025).

Assay [1] concerns the target T1, recombinant human EGFR ECD (human, UniProt P00533 25-645).
T1 construct: extracellular domain; also called EGFR extracellular domain (ECD)
Kind of assay: ELISA on EGFR ECD, FIG. 2A.

Assay [2] concerns the target T2, cMET extracellular domain (ECD) (UniProt P08581 25-932, limits assumed).
T2 construct: extracellular domain; Probably the same reagent as recombinant human cMET; also called cMET ECD
Kind of assay: ELISA on cMET ECD, FIG. 3A. (In an ELISA, binding on a coated surface is turned into a signal by an enzyme label.)

The target in assay [3] is T2, cMET extracellular domain (ECD). Kind of assay: blocking of HGF binding to cMET ECD, ELISA, FIG. 3F.
The target of assay [4] is T3, EGFR on HCC827 cells (UniProt P00533 25-1210).
T3 construct: whole, on cells; human tumour cell line; also called EGFR (HCC827)
Kind of assay: blocking of EGF binding to EGFR on HCC827 cells, FACS, FIG. 8B.

Assay [5] deals with T3, EGFR on HCC827 cells. Kind of assay: blocking of EGF-EGFR binding, HCC827 cells, gMFI, FIG. 2D.

T2 sequence (P08581 25-932 limits assumed): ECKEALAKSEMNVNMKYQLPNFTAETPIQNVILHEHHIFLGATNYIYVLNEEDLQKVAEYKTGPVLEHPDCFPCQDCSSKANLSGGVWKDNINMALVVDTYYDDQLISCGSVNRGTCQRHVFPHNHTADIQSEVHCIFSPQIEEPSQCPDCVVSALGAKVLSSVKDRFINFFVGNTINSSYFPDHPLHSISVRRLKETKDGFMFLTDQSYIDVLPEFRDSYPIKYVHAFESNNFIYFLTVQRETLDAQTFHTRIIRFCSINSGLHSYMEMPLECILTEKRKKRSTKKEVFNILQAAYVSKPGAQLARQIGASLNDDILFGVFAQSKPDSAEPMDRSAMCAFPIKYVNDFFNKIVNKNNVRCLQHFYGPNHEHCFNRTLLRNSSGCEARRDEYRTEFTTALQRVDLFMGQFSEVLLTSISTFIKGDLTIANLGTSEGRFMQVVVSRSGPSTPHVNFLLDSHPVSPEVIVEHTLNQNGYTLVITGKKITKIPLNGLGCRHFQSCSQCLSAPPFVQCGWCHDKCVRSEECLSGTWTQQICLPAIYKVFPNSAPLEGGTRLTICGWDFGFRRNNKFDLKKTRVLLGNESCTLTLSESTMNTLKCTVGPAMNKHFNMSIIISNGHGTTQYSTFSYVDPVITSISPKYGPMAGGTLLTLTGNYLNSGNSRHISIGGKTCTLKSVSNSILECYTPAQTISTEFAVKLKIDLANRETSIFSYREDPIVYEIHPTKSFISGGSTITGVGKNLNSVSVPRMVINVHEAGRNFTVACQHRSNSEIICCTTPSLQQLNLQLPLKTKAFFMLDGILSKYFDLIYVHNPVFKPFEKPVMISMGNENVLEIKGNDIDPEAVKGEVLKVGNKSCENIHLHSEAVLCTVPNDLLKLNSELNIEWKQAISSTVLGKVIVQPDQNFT

B1: gp120 mAb (antibody, V domains shown)
VH: QVQLVQSGAEVKKPGASVKVSCQASGYRFSNFVIHWVRQAPGQRFEWMGWINPYNGNKEFSAKFQDRVTFTADTSANTAYMELRSLRSADTAVYYCARVGPYSWDDSPQDNYYMDVWGKGTTVIVSS
VL: EIVLTQSPGTLSLSPGERATFSCRSSHSIRSRRVAWYQHKPGQAPRLVIHGVSNRASGISDRFSGSGSGTDFTLTITRVEPEDFALYYCQVYGASSYTFGQGTKLERK
notes: also called anti-gp120 mAb v12; null control Ab
As to B1, the binding result in assay [1] was “no binding”.

B2: EV1 (antibody, V domains shown)
VH: QVQLVQSGAEVKKPGASVKVSCKASGYTFTDYYMHWVRQAPGQGLEWMGRVNPNRGGTTYAQKFQGRVTMTTDTSISTAYMELSRLRSDDTAVYYCARANWLDYWGQGTTVTVSS
VL: DIQMTQSPSSLSASVGDRVTITCRVSQSVSSIYLHWYQQKPGKAPKLLIYSTSNLQSGVPSRFSGSGSGTDFTLTISSLQPEDFATYYCQVYSGYPLTFGGGTKVEIK
notes: anti-cMET mAb hit; also called cMET EVH1 / cMET EVL1
As to B2, the half-maximal effective concentration (EC50) is ~0.0175 µg/mL in assay [2] and ~0.093 µg/mL in assay [3].

B3: 7D VH6×EV1 bispecific antibody (bispecific antibody, not shown: a dimerising Fc or GST)
chain: not shown
VH: QVQLVQSGAEVKKPGASVKVSCKASGYTFTDYYMHWVRQAPGQGLEWMGRVNPNRGGTTYAQKFQGRVTMTTDTSISTAYMELSRLRSDDTAVYYCARANWLDYWGQGTTVTVSS
VL: DIQMTQSPSSLSASVGDRVTITCRVSQSVSSIYLHWYQQKPGKAPKLLIYSTSNLQSGVPSRFSGSGSGTDFTLTISSLQPEDFATYYCQVYSGYPLTFGGGTKVEIK
notes: also called EGFR×cMet hit; candidate BsAb
Consider B3, for which the concentration for a half-maximal effect (EC50) with EGFR on HCC827 cells [4] was ~0.63 nM.

B4: 7D VH4×EV1 bispecific antibody (bispecific antibody, not shown: a dimerising Fc or GST)
chain: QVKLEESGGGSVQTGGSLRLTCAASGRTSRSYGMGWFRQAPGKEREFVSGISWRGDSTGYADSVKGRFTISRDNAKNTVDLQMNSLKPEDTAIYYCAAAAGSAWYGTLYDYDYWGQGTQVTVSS
VH: QVQLVQSGAEVKKPGASVKVSCKASGYTFTDYYMHWVRQAPGQGLEWMGRVNPNRGGTTYAQKFQGRVTMTTDTSISTAYMELSRLRSDDTAVYYCARANWLDYWGQGTTVTVSS
VL: DIQMTQSPSSLSASVGDRVTITCRVSQSVSSIYLHWYQQKPGKAPKLLIYSTSNLQSGVPSRFSGSGSGTDFTLTISSLQPEDFATYYCQVYSGYPLTFGGGTKVEIK
notes: as for B3
In the case of B4, the concentration for a half-maximal effect (EC50) in the assay with EGFR on HCC827 cells [4] was ~0.81 nM.

B5: TV1 (antibody, V domains shown)
VH: QVQLVQSGAEVKKPGSSVKVSCKASGYIFTAYTMHWVRQAPGQGLEWMGGIKPNNGLANYAQKFQGRVTITADESTSTAYMELSSLRSEDTAVYYCARSEITTEFDYWGQGTLVTVSS
VL: DIVMTQSPDSLAVSLGERATINCKSSESVDSYANSFLHWYQQKPGQPPKLLIYRASTRESGVPDRFSGSGSGTDFTLTISSLQAEDVAVYYCQQSKEDPLTFGGGTKVEIK
notes: anti-cMET mAb hit; also called cMET TVH1 / cMET TVL0
Take B5: the concentration giving a half-maximal response (EC50) in assay [2] was ~0.0185 µg/mL; in assay [3] it was ~0.122 µg/mL.

B6: 7D VH1 (VHH)
VHH: EVQLVESGGGVVRPGGSLRLSCAASGRTSRSYGMGWFRQAPGKEREFVSGISWRGDSTGYADSVKGRFTISRDNAKNSVDLQMNSLRAEDTALYYCAAAAGSAWYGTLYEYDYWGQGTQVTVSS
notes: also called 7D VH hit; EGFR VHO mAb
As for B6, in the assay with EGFR on HCC827 cells [5], the 50% effective concentration (EC50) is ~0.025 µg/mL.

B7: TV4 (antibody, V domains shown)
VH: QVQLQESGPGLVKPSGTLSLTCAVSGYIFTAYTMHWVRQPPGKGLEWIGGIKPNNGLANYNPSLKSRATLSVDKSKNQASMKLSSVTAADTAVYYCARSEITTEFDYWGQGTLVTVSS
VL: DIQMTQSPSSLSASVGDRVTITCRASESVDSYANSFMHWYQQKPGKAPKLLIYRASNLESGVPSRFSGSGSGTDFTLTISSLQPEDFATYYCQQSKEDPLTFGGGTKVEIK
notes: anti-cMET mAb hit; also called cMET TVH2 / cMET TVL2
B7: the results for the 50% effective concentration (EC50) in assay [2] and in assay [3] were ~0.018 µg/mL and ~0.108 µg/mL, respectively.

B8: 7D VH6×TV4 bispecific antibody (bispecific antibody, not shown: a dimerising Fc or GST)
chain: not shown
VH: QVQLQESGPGLVKPSGTLSLTCAVSGYIFTAYTMHWVRQPPGKGLEWIGGIKPNNGLANYNPSLKSRATLSVDKSKNQASMKLSSVTAADTAVYYCARSEITTEFDYWGQGTLVTVSS
VL: DIQMTQSPSSLSASVGDRVTITCRASESVDSYANSFMHWYQQKPGKAPKLLIYRASNLESGVPSRFSGSGSGTDFTLTISSLQPEDFATYYCQQSKEDPLTFGGGTKVEIK
notes: as for B3
As to B8, the 50% effective concentration (EC50) with EGFR on HCC827 cells [4] is ~0.63 nM.

B9: 7D VH4×TV4 bispecific antibody (bispecific antibody, not shown: a dimerising Fc or GST)
chain: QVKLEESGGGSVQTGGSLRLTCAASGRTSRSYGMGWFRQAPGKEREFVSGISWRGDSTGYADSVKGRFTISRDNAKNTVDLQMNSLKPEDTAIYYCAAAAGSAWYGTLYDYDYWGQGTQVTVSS
VH: QVQLQESGPGLVKPSGTLSLTCAVSGYIFTAYTMHWVRQPPGKGLEWIGGIKPNNGLANYNPSLKSRATLSVDKSKNQASMKLSSVTAADTAVYYCARSEITTEFDYWGQGTLVTVSS
VL: DIQMTQSPSSLSASVGDRVTITCRASESVDSYANSFMHWYQQKPGKAPKLLIYRASNLESGVPSRFSGSGSGTDFTLTISSLQPEDFATYYCQQSKEDPLTFGGGTKVEIK
notes: as for B3
As for B9, in the assay with EGFR on HCC827 cells [4], the EC50 was ~0.93 nM.

B10: Onartuzumab (antibody, V domains shown)
VH: EVQLVESGGGLVQPGGSLRLSCAASGYTFTSYWLHWVRQAPGKGLEWVGMIDPSNSDTRFNPNFKDRFTISADTSKNTAYLQMNSLRAEDTAVYYCATYRSYVTPLDYWGQGTLVTVSS
VL: DIQMTQSPSSLSASVGDRVTITCKSSQSLLYTSSQKNYLAWYQQKPGKAPKLLIYWASTRESGVPSRFSGSGSGTDFTLTISSLQPEDFATYYCQQYYAYPWTFGQGTKVEIK
notes: also called cMET OVH0 / cMET OVL0
With B10, the concentration for a half-maximal effect (EC50) in assay [2] is ~0.025 µg/mL; in assay [3], ~0.093 µg/mL.

As a reminder, the EC50 is the concentration at which the effect is half-maximal. A higher EC50 goes with a less potent agent.
